Experimental data reported in patent US20130316022A1, “METHOD TO ENHANCE ANTIMICROBIAL ACTIVITY BY INCREASING pH” (University of Iowa Research Foundation, priority 2012, published 2013).

B1: lactoferrin (protein, UniProt P02788 20-710, looked up)
Lactotransferrin: GRRRSVQWCAVSQPEATKCFQWQRNMRKVRGPPVSCIKRDSPIQCIQAIAENRADAVTLDGGFIYEAGLAPYKLRPVAAEVYGTERQPRTHYYAVAVVKKGGSFQLNELQGLKSCHTGLRRTAGWNVPIGTLRPFLNWTGPPEPIEAAVARFFSASCVPGADKGQFPNLCRLCAGTGENKCAFSSQEPYFSYSGAFKCLRDGAGDVAFIRESTVFEDLSDEAERDEYELLCPDNTRKPVDKFKDCHLARVPSHAVVARSVNGKEDAIWNLLRQAQEKFGKDKSPKFQLFGSPSGQKDLLFKDSAIGFSRVPPRIDSGLYLGSGYFTAIQNLRKSEEEVAARRARVVWCAVGEQELRKCNQWSGLSEGSVTCSSASTTEDCIALVLKGEADAMSLDGGYVYTAGKCGLVPVLAENYKSQQSSDPDPNCVDRPVEGYLAVAVVRRSDTSLTWNSVKGKKSCHTAVDRTAGWNIPMGLLFNQTGSCKFDEYFSQSCAPGSDPRSNLCALCIGDEQGENKCVPNSNERYYGYTGAFRCLAENAGDVAFVKDVTVLQNTDGNNNEAWAKDLKLADFALLCLDGKRKPVTEARSCHLAMAPNHAVVSRMDKVERLKQVLLHQQAKFGRNGSDCPDKFCLFQSETKNLLFNDNTECLARLHGKTTYEKYLGPQYVAGITNLKKCSTSPLLEACEFLRK
notes: endogenous ASL antimicrobial protein, tested at 4 mg/ml
B2: lysozyme (protein, UniProt P61626 19-148, looked up)
Lysozyme C: KVFERCELARTLKRLGMDGYRGISLANWMCLAKWESGYNTRATNYNAGDRSTDYGIFQINSRYWCNDGKTPGAVNACHLSCSALLQDNIADAVACAKRVVRDPQGIRAWVAWRNRCQNRDVRQYVQGCGV
notes: endogenous ASL antimicrobial protein, tested at 1.25 mg/ml

Experiments:
[1] = test system: E. coli DH5a expressing luminescence plasmid pCGLS1; assay: E. coli luminescence antibacterial assay, effect of pH; format: cell-based; details: pH values from 6.8-8.0 (FIG. 8)
Procedure: (§1) To assess the effect of pH on the antibacterial activity of lysozyme and lactoferrin, we used a luminescence assay of bacterial viability that has been described previously ^15. The bacteria used were S. aureus Xen29 (Caliper LifeSciences Bioware™, Hopkinton, Mass.) and E. coli DH5a (GIBCO BRL, Life Technologies, Grand Island, N.Y.) expressing a luminescence plasmid pCGLS1. E. coli were grown in Luria-Bertani medium containing ampicillin (100 μg/ml, to maintain the plasmid) at 30° C. with shaking. For S. aureus, kanamycin 10 μg/ml was used instead of ampicillin. Log phase bacteria were centrifuged and resuspended in 1% Tryptic Soy Broth medium with 10 mM HEPES titrated to pH values from 6.8-8.0. E. coli (5×10^6 CFU) or S. aureus (5×10^5 CFU) were incubated with the indicated concentrations of lysozyme or lactoferrin in 96-well plates (Optiplate-96, Perkin Elmer, Waltham, Mass.) in a total volume of 120 μl. Controls were the same conditions in the same plates, but without lysozyme or lactoferrin. After incubation at 30° C. for the indicated times, luminescence was measured with a luminometer (Spectra Max L, Molecular Devices, Sunnyvale, Calif.) and was reported as relative light units (RLU). A previous study^16 determined that reductions in luminescence have an excellent correlation with a decrease in CFU.

S. aureus Xen29 = assay: S. aureus luminescence antibacterial assay, effect of pH; format: cell-based
Procedure: as §1

Molecule	effect of pH on E. coli killing [1]	relative luminescence compared to control (S. aureus Xen29; pH 6.8, 4 mg/ml lactoferrin, 60 minutes)	relative luminescence compared to control (S. aureus Xen29; pH 7.2, 4 mg/ml lactoferrin, 60 minutes)	relative luminescence compared to control (S. aureus Xen29; pH 7.6, 4 mg/ml lactoferrin, 60 minutes)	relative luminescence compared to control (S. aureus Xen29; pH 8.0, 4 mg/ml lactoferrin, 60 minutes)	relative luminescence compared to control (S. aureus Xen29; pH 6.8, 1.25 mg/ml lysozyme, 30 minutes)	relative luminescence compared to control (S. aureus Xen29; pH 7.2, 1.25 mg/ml lysozyme, 30 minutes)	relative luminescence compared to control (S. aureus Xen29; pH 7.6, 1.25 mg/ml lysozyme, 30 minutes)	relative luminescence compared to control (S. aureus Xen29; pH 8.0, 1.25 mg/ml lysozyme, 30 minutes)
B1	increasing pH increased S. aureus and E. coli killing	85.0 ± 9.3	73.6 ± 8.2	60.8 ± 4.8	39.8 ± 5.0	–	–	–	–
B2	increasing pH increased S. aureus and E. coli killing	–	–	–	–	49.1 ± 3.4	43.5 ± 1.5	30.6 ± 2.3	23.4 ± 0.8
